Legend:
Assay type in all cases: binding
Conditions in all cases: response relative to ADIFAB2
[1] = Probe fluorescence ratio response to arachidonic acid relative to ADIFAB2
Outline: (§1)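 Fluorescently labeled rat intestinal FABP variants were read at two emission wavelengths, near the unbound maximum (about 420 to 480 nm) and the FFA-bound maximum (about 495 to 580 nm). R = Fλ1/Fλ2 after subtracting probe-free intensity; ΔR = R+agent − R0, normalized to ADIFAB2 (rI-FABP-L72A).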

[2] = Probe fluorescence ratio response to linolenic acid relative to ADIFAB2
Outline: as §1

[3] = Probe fluorescence ratio response to linoleic acid relative to ADIFAB2
Outline: as §1

[4] = Probe fluorescence ratio response to oleic acid relative to ADIFAB2
Outline: as §1

[5] = Probe fluorescence ratio response to palmitic acid relative to ADIFAB2
Outline: as §1

| Molecule | DR/DR AA ([1]; Arachidonic acid) | DR/DR LNA [2] | DR/DR LA [3] | DR/DR OA [4] | DR/DR PA [5] | DR/DR AA ([1]; arachidonic acid) |
| --- | --- | --- | --- | --- | --- | --- |
| 49N1, 72A (protein, listed as Rattus norvegicus, PEPTIDE (1)...(131) wild-type rat intestinal fatty acid binding protein) AFDGTWKVDRNENYEKFMEKMGINVVKRKLGAHDNLKLTITQEGNKFTNKESSNFRNIDVVFELGVDFAYSAADGTELTGTWTMEGNKLVGKFKRVDNGKELIAVREISGNELIQTYTYEGVEAKRIFKKE | 1.26 | 1.18 | 1.10 | 1.11 | 0.74 | – |
| 49Y1, 72A (protein, listed as Rattus norvegicus, PEPTIDE (1)...(131) wild-type rat intestinal fatty acid binding protein) AFDGTWKVDRNENYEKFMEKMGINVVKRKLGAHDNLKLTITQEGNKFTYKESSNFRNIDVVFELGVDFAYSAADGTELTGTWTMEGNKLVGKFKRVDNGKELIAVREISGNELIQTYTYEGVEAKRIFKKE | 1.39 | 1.44 | 1.51 | 1.34 | 0.70 | – |
| 102V, 72A (protein, listed as Rattus norvegicus, PEPTIDE (1)...(131) wild-type rat intestinal fatty acid binding protein) AFDGTWKVDRNENYEKFMEKMGINVVKRKLGAHDNLKLTITQEGNKFTVKESSNFRNIDVVFELGVDFAYSAADGTELTGTWTMEGNKLVGKFKRVDNGKEVIAVREISGNELIQTYTYEGVEAKRIFKKE | – | 0.51 | 0.67 | 0.57 | 0.35 | 0.46 |
| 51H1, 72A (protein, listed as Rattus norvegicus, PEPTIDE (1)...(131) wild-type rat intestinal fatty acid binding protein) AFDGTWKVDRNENYEKFMEKMGINVVKRKLGAHDNLKLTITQEGNKFTVKHSSNFRNIDVVFELGVDFAYSAADGTELTGTWTMEGNKLVGKFKRVDNGKELIAVREISGNELIQTYTYEGVEAKRIFKKE | 1.52 | 1.58 | 1.64 | 0.58 | 0.81 | – |
| 51A1, 72A (protein, listed as Rattus norvegicus, PEPTIDE (1)...(131) wild-type rat intestinal fatty acid binding protein) AFDGTWKVDRNENYEKFMEKMGINVVKRKLGAHDNLKLTITQEGNKFTVKASSNFRNIDVVFELGVDFAYSAADGTELTGTWTMEGNKLVGKFKRVDNGKELIAVREISGNELIQTYTYEGVEAKRIFKKE | 1.38 | 1.49 | 1.48 | 1.28 | 0.70 | – |
| 49Q, 72A (protein, listed as Rattus norvegicus, PEPTIDE (1)...(131) wild-type rat intestinal fatty acid binding protein) AFDGTWKVDRNENYEKFMEKMGINVVKRKLGAHDNLKLTITQEGNKFTQKESSNFRNIDVVFELGVDFAYSAADGTELTGTWTMEGNKLVGKFKRVDNGKELIAVREISGNELIQTYTYEGVEAKRIFKKE | 0.62 | 0.55 | 0.58 | 0.56 | 0.43 | – |
| 49W1, 72A (protein, listed as Rattus norvegicus, PEPTIDE (1)...(131) wild-type rat intestinal fatty acid binding protein) AFDGTWKVDRNENYEKFMEKMGINVVKRKLGAHDNLKLTITQEGNKFTWKESSNFRNIDVVFELGVDFAYSAADGTELTGTWTMEGNKLVGKFKRVDNGKELIAVREISGNELIQTYTYEGVEAKRIFKKE | 0.58 | 0.58 | 0.58 | 0.56 | 0.35 | – |
| 51G1, 72A (protein, listed as Rattus norvegicus, PEPTIDE (1)...(131) wild-type rat intestinal fatty acid binding protein) AFDGTWKVDRNENYEKFMEKMGINVVKRKLGAHDNLKLTITQEGNKFTVKGSSNFRNIDVVFELGVDFAYSAADGTELTGTWTMEGNKLVGKFKRVDNGKELIAVREISGNELIQTYTYEGVEAKRIFKKE | 1.64 | 1.76 | 1.71 | 1.57 | 0.78 | – |
| 49T1, 72A (protein, listed as Rattus norvegicus, PEPTIDE (1)...(131) wild-type rat intestinal fatty acid binding protein) AFDGTWKVDRNENYEKFMEKMGINVVKRKLGAHDNLKLTITQEGNKFTTKESSNFRNIDVVFELGVDFAYSAADGTELTGTWTMEGNKLVGKFKRVDNGKELIAVREISGNELIQTYTYEGVEAKRIFKKE | 0.66 | 0.64 | 0.67 | 0.67 | 0.43 | – |
| 49P1, 72A (protein, listed as Rattus norvegicus, PEPTIDE (1)...(131) wild-type rat intestinal fatty acid binding protein) AFDGTWKVDRNENYEKFMEKMGINVVKRKLGAHDNLKLTITQEGNKFTPKESSNFRNIDVVFELGVDFAYSAADGTELTGTWTMEGNKLVGKFKRVDNGKELIAVREISGNELIQTYTYEGVEAKRIFKKE | 1.57 | 1.53 | 1.59 | 1.40 | 0.76 | – |
| 51I1, 72A (protein, listed as Rattus norvegicus, PEPTIDE (1)...(131) wild-type rat intestinal fatty acid binding protein) AFDGTWKVDRNENYEKFMEKMGINVVKRKLGAHDNLKLTITQEGNKFTVKISSNFRNIDVVFELGVDFAYSAADGTELTGTWTMEGNKLVGKFKRVDNGKELIAVREISGNELIQTYTYEGVEAKRIFKKE | 1.50 | 1.62 | 1.55 | 1.41 | 0.72 | – |
| 51D1, 72A (protein, listed as Rattus norvegicus, PEPTIDE (1)...(131) wild-type rat intestinal fatty acid binding protein) AFDGTWKVDRNENYEKFMEKMGINVVKRKLGAHDNLKLTITQEGNKFTVKDSSNFRNIDVVFELGVDFAYSAADGTELTGTWTMEGNKLVGKFKRVDNGKELIAVREISGNELIQTYTYEGVEAKRIFKKE | 1.34 | 1.39 | 1.38 | 1.28 | 0.68 | – |
| 49S1, 72A (protein, listed as Rattus norvegicus, PEPTIDE (1)...(131) wild-type rat intestinal fatty acid binding protein) AFDGTWKVDRNENYEKFMEKMGINVVKRKLGAHDNLKLTITQEGNKFTSKESSNFRNIDVVFELGVDFAYSAADGTELTGTWTMEGNKLVGKFKRVDNGKELIAVREISGNELIQTYTYEGVEAKRIFKKE | 1.27 | 1.34 | 1.29 | 1.18 | 0.66 | – |
| 51F1, 72A (protein, listed as Rattus norvegicus, PEPTIDE (1)...(131) wild-type rat intestinal fatty acid binding protein) AFDGTWKVDRNENYEKFMEKMGINVVKRKLGAHDNLKLTITQEGNKFTVKFSSNFRNIDVVFELGVDFAYSAADGTELTGTWTMEGNKLVGKFKRVDNGKELIAVREISGNELIQTYTYEGVEAKRIFKKE | 1.64 | 1.60 | 1.70 | 1.47 | 0.76 | – |
| 49R1, 72A (protein, listed as Rattus norvegicus, PEPTIDE (1)...(131) wild-type rat intestinal fatty acid binding protein) AFDGTWKVDRNENYEKFMEKMGINVVKRKLGAHDNLKLTITQEGNKFTRKESSNFRNIDVVFELGVDFAYSAADGTELTGTWTMEGNKLVGKFKRVDNGKELIAVREISGNELIQTYTYEGVEAKRIFKKE | 1.68 | 1.70 | 1.75 | 1.56 | 0.78 | – |
| 49Q1, 72A (protein, listed as Rattus norvegicus, PEPTIDE (1)...(131) wild-type rat intestinal fatty acid binding protein) AFDGTWKVDRNENYEKFMEKMGINVVKRKLGAHDNLKLTITQEGNKFTQKESSNFRNIDVVFELGVDFAYSAADGTELTGTWTMEGNKLVGKFKRVDNGKELIAVREISGNELIQTYTYEGVEAKRIFKKE | 0.92 | 1.23 | 1.25 | 1.20 | 0.69 | – |
| 51C3, 72A (protein, listed as Rattus norvegicus, PEPTIDE (1)...(131) wild-type rat intestinal fatty acid binding protein) AFDGTWKVDRNENYEKFMEKMGINVVKRKLGAHDNLKLTITQEGNKFTVKCSSNFRNIDVVFELGVDFAYSAADGTELTGTWTMEGNKLVGKFKRVDNGKELIAVREISGNELIQTYTYEGVEAKRIFKKE | 1.44 | 1.47 | 1.55 | 1.35 | 0.69 | – |

— US20060257938A1, “Method of screening for drugs that block ligand binding to a lipid binding protein” (priority 2005, published 2006)
